Measured values published in patent US20030170653A1, “Biological method for the production of tuliposide A and its intermediates” (priority 2001, published 2003).

Tests used:
[1] = Decarboxylase enzyme activity of E. coli extracts, substrate D,L-γ-methyleneglutamate (HPLC of FMOC derivatives); type: biochemical; conditions: for enzyme activity against D,L-γ-methyleneglutamate compared with L-glutamate: proteins from expressing cells; for Rate for each substrate: γ-methyleneglutamate (2): crude protein, 20 mM D,L-γ-methyleneglutamate, pH 5.8, room temperature
Experimental: (§1) Chemically competent BL21 (DE3) cells (Novagen) were transformed with pNW2, pNW12 and pNW9, as well as with plasmids pET28a and pET29a. An isolated colony of freshly transformed cells was inoculated into 2 mL of LB containing kanamycin (50 μg/mL) and the culture grown overnight at 37° C. Cultures were transferred to 250 mL of LB containing kanamycin (50 μg/mL) and grown at 22° C. to OD 0.6-1.0, at which point they were induced with IPTG (0.1 mM). Induced cells were grown for an additional 14 h and harvested by centrifugation at 10,000× g.
(§2) Cells were resuspended in 5 mL of extraction buffer (50 mM Tris-HCl, pH 7.5, 0.2 mM EDTA, 10% glycerol, 1 mM DTT and 1 mM fresh AEBSF) and disrupted by two passes through a French press cell (12,000 psi). Soluble protein extracts were obtained from the supernatant fraction after centrifugation at 10,000× g for 10 min. Protein concentrations were determined using a Bradford reagent (Bio-Rad) (Bradford, Anal. Biochem. 72:248-254 (1976)).
(§3) Enzyme activity was determined using a method similar to that of Snedden et al. (J. Biol. Chem. 271:4148-4153 (1996)) and Turano et al. (Plant Physiol. 117:1141-1421 (1998)). Assays were carried out in a volume of 200 μL with 200 mM pyridine-HCl, pH 5.8, 10 mM NaCl, 0.1 mM PLP, 20 mM L-glutamate or D,L-γ-methyleneglutamate, and 20 to 50 uL of enzyme extract. The reactions were incubated at room temperature and 50 μL aliquots were removed at various times. Ethanol (100 μL) was added to terminate the reaction and precipitate the proteins. Samples were centrifuged at 10,000× g for 10 min. The supernatants were transferred to a fresh tube and dried under vacuum after which they were dissolved in 500 μL of borate buffer (400 mM, pH 10). For HPLC analysis, 20 μL of the sample was derivatized by mixing with 20 μL of FMOC ((9-fluorenylmethoxycarbonyl)). FMOC-derivatized samples were separated on a Novapak C18 column (3.9×150 mm, Waters) using an Alliance 2690 HPLC with a 9600 PDA detector (Waters). Samples were injected (16 μL) and separated with a gradient of Buffer A (40 mM NaPO4, pH 7.8) to Buffer B (methanol:acetonitrile:water/45:45:10). Assay products were FMOC-derivatized and quantified by comparison with standards. In each experiment, enzyme activity determinations were performed in triplicate. Proteins from Escherichia coli expressing empty vectors pET28a and pET29a were used as controls.

[2] = Decarboxylase enzyme activity of E. coli extracts, substrate L-glutamate (HPLC of FMOC derivatives); type: biochemical; conditions: for Rate for each substrate: Glutamate (1): crude protein, 20 mM L-glutamate, pH 5.8, room temperature; for Ratio (½): rate with glutamate (1) over rate with γ-methyleneglutamate (2)
Experimental: as §1, §2, §3

B1: gad3chim: chimeric glutamate decarboxylase homolog from Alstroemeria (SEQ ID NO: 6), N-terminal His-tag fusion from vector pNW9 (protein)
chain: MALSSVVSDSNNQVQCTYASRYVRDEAPGFRMPEKSIPKEAAFTMINDELMLDGNPRLNLASFVTTWMEPECDRLMMSTINKNYALMDDYPVTIDIQNRCVNMIANLFNAPIGEGETTVGCATVGSSEAMMLAGLAFKRNWQNKRKAEGKPYDKPNMVTGSNVQVCWVKFAKYFEVEMKKVNLREGYYVMDPEKAVEMVDENTICVAAILGSTLTGEFEDVKLLNDLLVEKNKKTGWDTPIHVDAAIGGFIAPFIYPELEWDFRLPLVKSINVSGHKYGLVYPGVGWVVWRNKNDLPEELIFHINYLGIDQPTFTLNFSKGSNQIIGQYYQLIRLGFEGYKNIMENCTENARILREHLEEMGVFEIISKDIGAPLVTIALKDSSKHSVFKIADTIRRFGWTIPAYTMPKDVEHIAVLRVVIREDFSRSLAERLANDMKKVLVELDIHPSRTTTIAHVKAVENGNGNYVIKKSIVENGNGEHVIKKSIGENGNGKHAIKNEHVIKKSIGENFNGKHAIKNCRDAVIANAA
modifications: N-terminal His-tag; Alstroemeria
[1]
  enzyme activity against D,L-γ-methyleneglutamate compared with L-glutamate: much higher

B2: Gad3del/pNW12: glutamate decarboxylase homolog from Alstroemeria with in-frame deletion (SEQ ID NO: 4), N-terminal His-tag fusion from vector pNW12 (protein)
chain: MALSSVVSDSNNQVQCTYASRYVRDEAPGFRMPEKSIPKEAAFTMINDELMLDGNPRLNLASFVTTWMEPECDRLMMSTINKNYALMDDYPVTIDIQNRCVNMIANLFNAPIGEGETTVGCATVGSSEAMMLAGLAFKRNWQNKRKAEGKPYDKPNMVTGSNVQVCWVKFAKYFEVEMKKVNLREGYYVMDPEKAVEMVDENTICVAAILGSTLTGEFEDVKLLNDLLVEKNKKTGWDTPIHVDAAIGGFIAPFIYPELEWDFRLPLVKSINVSGHKYGLVYPGVGWVVWRNKNDLPEELIFHINYLGIDQPTFTLNFSKGSNQIIGQYYQLIRLGFEGYKNIMENCTENARILREHLEEMGVFEIISKDIGAPLVTIALKDSSKHSVFKIADTIRRFGWTIPAYTMPKDVEHIAVLRVVIREDFSRSLAERLANDMKKVLVELDIHPSRTTTIAHVKAVENGNGNYVIKKSIVENGNGEHVIKKSIGENGNGKHAIKNCRDAVIANAA
modifications: N-terminal His-tag; Alstroemeria
[1]
  Rate for each substrate: γ-methyleneglutamate (2): 12.4 μmol/min^−1/mg^−1
  enzyme activity against D,L-γ-methyleneglutamate compared with L-glutamate: much higher
[2]
  Rate for each substrate: Glutamate (1): 7.0 μmol/min^−1/mg^−1
  Ratio (½): 0.56

B3: Gad2/pNW2: glutamate decarboxylase homolog from Alstroemeria (SEQ ID NO: 2), expressed in E. coli from vector pNW2, crude protein (protein)
chain: MVLSSAVSDNTGPVHCTFASRYVRDAPARFRMPENSIPKDTAYQIVNDELMLDGNPRLNLASFVTTWMEPECDRLMIAAANKNYVDMDEYPVTTELQNRCVNIIAHLFNAPIGDEETAVGVGTVGSSEAIMLAGLAFKRKWQNKKKAEGKPYDKPNIVTGANVQVCWEKFARYFEVELKEVKLREGYYIMDPEKAVEMVDENTICVAAILGSTLTGEFEDVKLLNKLLEEKNKETGWDTPIHVDAASGGFIAPFLYPELEWDFRLPLVKSINVSGHKYGLVYAGVGWVVWRNKEDLPEELIFHINYLGADQPTFTLNFSKGSSQIIAQYYQFIRLGFQGYKNIMENCMENTRILREGLQETGRFEIVSKDIGVPLVAFALKDSSQYTVFEIADAMRRFGWIIPAYTMPKDAEHIAVLRVVIREDFSRSLAERLVNDMKKVLAELDVLPSRITTIAHVTAVENDNGEAVIKKSFLEIEKKVITHWKDVVMNGKKTNKVC
modifications: Alstroemeria
[1]
  Rate for each substrate: γ-methyleneglutamate (2): 0.8 μmol/min^−1/mg^−1
[2]
  Rate for each substrate: Glutamate (1): 12.0 μmol/min^−1/mg^−1
  Ratio (½): 16
[2]; proteins from expressing cells
  enzyme activity with L-glutamate compared with D,L-γ-methyleneglutamate as substrate: sixteen times higher
